This passage reports tyrosine phosphorylation (4G10 blot) of precipitated MT1-MMPmCh by recombinant GST-LIMK1 in an in vitro kinase assay, ΔDKV against WT results from publication PMC4847008.

This assay concerns the target MT1-MMPmCh ΔDKV (UniProt P50281).

For “LIM Kinase-1 (from UniProt P53667 1-647) (natural protein)”, the tyrosine phosphorylation (4G10 blot) of precipitated MT1-MMPmCh by recombinant GST-LIMK1 in an in vitro kinase assay, ΔDKV against WT turned out to be 60 % decrease.
